Measurements: the DeepSol protein solubility set

Assay: soluble on expression in E. coli; label from the status in PepcDB or PDB records

Row | Sequence | soluble on expression in E. coli
1 | MAFKDTFNKMISYFDTDEVNEVEEDVAASTDNVIPRSQQSVRASSHPKQEPRNNHVQQDHQARSQEQTRSQMHPKHGTSERYYQQSQPKEGHEMVDRRKRMSTSGIANRREQYQQSTCSDQTTIALKYPRKYEDAQEIVDLLIVNECVLIDFQFMLDAQARRCLDFIDGASKVLYGSLQKVGSSMYLLAPSNVSVNIEEMTIPHTTQDIGFDFDMKRRLEHHHHHH | not soluble
2 | GRTVVVLGGGISGLAASYHLSRAPCPPKVVLVESSERLGGWIRSVRGPNGAIFELGPRGIRPAGALGARTLLLVSELGLDSEVLPVRGDHPAAQNRFLYVGGALHALPTGLRGLLRPSPPFSKPLFWAGLRELTKPRGKEPDETVHSFAQRRLGPEVASLAMDSLCRGVFAGNSRELSIRSCFPSLFQAEQTHRSILLGLLLGAGRTPQPDSALIRQALAERWSQWSLRGGLEMLPQALETHLTSRGVSVLRGQPVCGLSLQAEGRWKVSLRDSSLEADHVISAIPASVLSELLPAEAAPLARALSAITAVSVAVVNLQYQGAHLPVQGFGHLVPSSEDPGVLGIVYDSVAFPEQDGSPPGLRVTVMLGGSWLQTLEASGCVLSQELFQQRAQEAAATQLGLKEMPSHCLVHLHKNCIPQYTLGHWQKLESARQFLTAHRLPLTLAGASYEGVAVNDCIESGRQAAVSVLGTEPNS | soluble
3 | MACPEATFFHRAGWKQVIEQAFGHKTWFLYIEEGGCIQGVLPLAEIDSLLFGHSLSALPFCVYGGIAAISDDARIRLDQAAQMLATYLKVDYLEYRHLHPFHHDWPTKDLYVTFRKTMDSDVEQNMLAIPRKQRAMVRKGMKYELQSYLDQDTDHFFRAYSASVHRLGTPVFSRKYFRLLKSVFAEDCELLIITKDENVVSAVMSFYFRDEVLPYYGGGTDAARDLAGNDFMYWELMRRACERGYRVFDFGRSKRGTGSYSFKKNWGFEPQPLFYEYQLHQAKTIPEHNPLNPKYQLFIKAWQKMPLALANMLGPHIVKNLG | not soluble
4 | MRGSHHHHHHGSRSSKNVIKEFMRFKVRMEGTVNGHEFEIEGEGEGRPYEGHNTVKLKVTKGGPLPFAWDILSPQFQYGSKVYVKHPADIPDYKKLSFPEGFKWERVMNFEDGGVVTVTQDSSLQDGCFIYKVKFIGVNFPSDGPVMQKKTMGWEASTERLYPRDGVLKGEIHKALKLKDGGHYLVEFKSIYMAKKPVQLPGYYYVDSKLDITSHNEDYTIVEQYERTEGRHHLFL | soluble
5 | MGSDKIHHHHHHDEINKDHNHTTAVPAKMILTDVMTSTAFSVVSGDFNLYGGMYVEHETGSHNQFYYAETRSSCTSASTFNNSWGGTYSTLKDALISVKVAEEEQNFITKGIAELFVAYNLAILTDMYGDTPWKEACDYTVSMTPAIDKQEEIYKDIMAYVDAAIEDLQKPDLTSLSNQDLIYKGDASAWLKTAYGLKARYTMRLMGRSADVKGDMEKVLDYISKSYTSAAEQCSYAMYGVGVNINPFFGVFYSRLGEVASRSMFDKLNERNDPRIRRCYVEANSQTMIASKDDPLLNLAHNGDLVQSQLEYTVSMFCAAQTAPTHILSYHEVLFLKAEALCRLNRKDEAKAVLKEAVVAGMANMEVNIKSALASDYWGGFLNVTNEVTPEEAASYFDENVVPLFDANPLKETMIQKYISFWNADGESTECYNDVRRLKSLGEDIYGLQNPGKFPLRCPYGNDDTTTNPNIQAAYGDGQYVFTENVWWAGGTR | not soluble
6 | MGSDKIHHHHHHMGTDSEKAIPPKVSRAAAEWLVELHSGQVGKEVREQWQAWRAAHPDHERAWQHIEMLGERLGGLSSSLAHATMAPRGSLRRRRAIKTLAMLLFAGGSAWVVQEKTPWWQLSADYSTGIGEQRRIELEDGTVVDLNSSSAINVAYTQQQRILMLLRGEMHVATASESATARPFLIASDQGSVRAFGTRFVVRQLTNEKDSPIKVGVLEGAVEVAPSEMPARVRLQAGEQLSFTRHMVTPIEPVIPHDTAWLQRMLVADDMPLGEFLAELSRYRKGSLGCDHSIKHLKVSGTYPLDDTDKVIEMLQQSLNLQVRMLTRYWVRLMPPAA | not soluble
